# Test results as given in patent publication US20060142201A1.
# Experiments:
# [1] = biological target: human noradrenaline transporter (hNET) (human) (UniProt P23975); experiment: cell-based or functional assay
# [2] = biological target: human noradrenaline transporter (hNET) (human) (UniProt P23975)
# Sequence of human noradrenaline transporter (hNET) (human) (P23975 whole entry): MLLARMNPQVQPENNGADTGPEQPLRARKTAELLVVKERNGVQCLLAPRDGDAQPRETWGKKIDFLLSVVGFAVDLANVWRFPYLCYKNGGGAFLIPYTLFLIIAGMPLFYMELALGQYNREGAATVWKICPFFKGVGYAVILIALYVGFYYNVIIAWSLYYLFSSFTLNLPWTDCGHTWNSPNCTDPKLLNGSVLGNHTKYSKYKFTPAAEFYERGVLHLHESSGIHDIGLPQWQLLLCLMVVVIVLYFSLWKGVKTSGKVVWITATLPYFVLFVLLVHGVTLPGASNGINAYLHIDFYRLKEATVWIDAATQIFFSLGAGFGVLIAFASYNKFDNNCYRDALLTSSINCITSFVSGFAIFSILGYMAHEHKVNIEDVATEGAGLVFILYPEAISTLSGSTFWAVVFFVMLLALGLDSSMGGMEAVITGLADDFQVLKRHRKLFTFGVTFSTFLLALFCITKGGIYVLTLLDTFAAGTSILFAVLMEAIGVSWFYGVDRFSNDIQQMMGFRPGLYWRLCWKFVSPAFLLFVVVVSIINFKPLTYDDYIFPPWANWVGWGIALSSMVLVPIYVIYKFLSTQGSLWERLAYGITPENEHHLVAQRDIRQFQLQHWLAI
Substance,Ay log IC50 for inhibition of 3H-NA through hNET [1],Ay log IC50 for displacement of 3H-nisoxetine from hNET [2]
χ-MrIA (SEQ ID NO. 1) (peptide),-6.3 log M,–
χ-MrIA (SEQ ID NO. 1) (peptide; other documents disagree on this pair),–,-5.14 log M
